Results taken from patent US20170291930.

Experiments:
[1] = target: T1, Hst-5 synthetic peptide K17L
T1 chain: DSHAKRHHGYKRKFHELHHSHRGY

[2] = target: T2, Hst-5 synthetic peptide K17R
T2 chain: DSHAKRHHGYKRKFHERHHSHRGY

B1: purified recombinant Sap2 (C. albicans secreted aspartic protease 2) (protein)
chain: QAVPVTLHNEQVTYAADITVGSNNQKLNVIVDTGSSDLWVPDVNVDCQVTYSDQTADFCKQKGTYDPSGSSASQDLNTPFKIGYGDGSSSQGTLYKDTVGFGGVSIKNQVLADVDSTSIDQGILGVGYKTNEAGGSYDNVPVTLKKQGVIAKNAYSLYLNSPDAATGQIIFGGVDNAKYSGSLIALPVTSDRELRISLGSVEVSGKTINTDNVDVLLDSGTTITYLQQDLADQIIKAFNGKLTQDSNGNSFYEVDCNLSGDVVFNFSKNAKISVPASEFAASLQGDDGQPYDKCQLLFDVNDANILGDNFLRSAYIVYDLDDNEISLAQVKYTSASSISALT
cleavage at the C-terminal side of residue 17 by Sap2 (mass spectrometry) [1]: Substitutions at K17 did lead to a significant decrease in signals from fragments formed by cleavage at the C-terminal side of K17, however, unlike Sap9, Sap2 still cleaved K17L and K17R at this site
cleavage at the C-terminal side of residue 17 by Sap2 (mass spectrometry) [2]: Substitutions at K17 did lead to a significant decrease in signals from fragments formed by cleavage at the C-terminal side of K17, however, unlike Sap9, Sap2 still cleaved K17L and K17R at this site
